According to the supplement of paper PMC9112550, “Optimization of the antimicrobial peptide Bac7 by deep mutational scanning” (BMC Biology, 2022):

Tested on: Escherichia coli TOP10
Test: shrunken log2 fold change of peptide-encoding DNA abundance (4.5 h post-induction vs induction); higher = less antimicrobial activity (less host growth inhibition)
Details: time post-induction: 4.5 h; library: site-saturation at positions 5, 18, 19, 20
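Further: peptides expressed intracellularly from a pBAD plasmid library in pooled LB shake-flask culture, induced with 0.3% L-arabinose, DNA abundance read by NGS, three biological replicates, DESeq2 with apeglm shrinkage.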

| Sequence | shrunken log2 fold change |
| --- | --- |
| RRIRFRPPRLPRPRPRPKTAPRP | 0.295 |
| RRIRHRPPRLPRPRPRPKVIPRP | 0.109 |
| RRIRRRPPRLPRPRPRPHASPRP | 0.201 |
| RRIRSRPPRLPRPRPRPEHWPRP | 0.422 |
| RRIRCRPPRLPRPRPRPGGVPRP | 0.42 |
| RRIRNRPPRLPRPRPRPCSAPRP | -0.292 |
| RRIRARPPRLPRPRPRPCYEPRP | -0.109 |
| RRIRGRPPRLPRPRPRPMLWPRP | 0.737 |
| RRIRRRPPRLPRPRPRPKWYPRP | 0.0824 |
| RRIRFRPPRLPRPRPRPREYPRP | -0.415 |
| RRIRTRPPRLPRPRPRPEFSPRP | 0.00789 |
| RRIRKRPPRLPRPRPRPPSVPRP | 0.282 |
| RRIRYRPPRLPRPRPRPRLMPRP | -0.0571 |
| RRIRHRPPRLPRPRPRPKTIPRP | -0.486 |
| RRIRKRPPRLPRPRPRPTNCPRP | 0.0303 |
| RRIRNRPPRLPRPRPRPFRMPRP | 0.00572 |
| RRIRIRPPRLPRPRPRPLDGPRP | 0.0631 |
| RRIRNRPPRLPRPRPRPGLCPRP | 0.685 |
| RRIRLRPPRLPRPRPRPEYMPRP | -0.741 |
| RRIRSRPPRLPRPRPRPAYHPRP | -0.1 |
| RRIRYRPPRLPRPRPRPPPCPRP | 0.574 |
| RRIRMRPPRLPRPRPRPYPHPRP | 0.00442 |
| RRIRARPPRLPRPRPRPRILPRP | 0.323 |
| RRIRQRPPRLPRPRPRPNQYPRP | -0.529 |
| RRIRLRPPRLPRPRPRPMWKPRP | -0.0297 |

| Sequence | shrunken log2 fold change |
| --- | --- |
| RRIRGRPPRLPRPRPRPDEKPRP | 0.233 |
| RRIRDRPPRLPRPRPRPKCVPRP | 0.104 |
| RRIRCRPPRLPRPRPRPDTVPRP | -0.369 |
| RRIRRRPPRLPRPRPRPPNYPRP | 0.0616 |
| RRIRQRPPRLPRPRPRPIQMPRP | -0.0176 |
| RRIRHRPPRLPRPRPRPIQDPRP | -0.00151 |
| RRIRSRPPRLPRPRPRPECRPRP | 0.266 |
| RRIRLRPPRLPRPRPRPCSRPRP | 0.06 |
| RRIRWRPPRLPRPRPRPQQNPRP | -0.00819 |
| RRIRERPPRLPRPRPRPAAYPRP | -0.0475 |
| RRIRDRPPRLPRPRPRPPNSPRP | -0.0992 |
| RRIRTRPPRLPRPRPRPLMAPRP | -0.031 |
| RRIRRRPPRLPRPRPRPNMNPRP | -0.463 |
| RRIRRRPPRLPRPRPRPASDPRP | -0.0475 |
| RRIRYRPPRLPRPRPRPFIGPRP | -1.58 |
| RRIRARPPRLPRPRPRPPFAPRP | 0.87 |
| RRIRPRPPRLPRPRPRPTTTPRP | 0.142 |
| RRIRNRPPRLPRPRPRPFKSPRP | -0.014 |
| RRIRFRPPRLPRPRPRPHLKPRP | -0.437 |
| RRIRNRPPRLPRPRPRPSIPPRP | -0.134 |
| RRIRMRPPRLPRPRPRPRQLPRP | 0.691 |
| RRIRGRPPRLPRPRPRPHMHPRP | 0.448 |
| RRIRYRPPRLPRPRPRPQVGPRP | -0.0385 |
| RRIRKRPPRLPRPRPRPNDCPRP | -0.0159 |
| RRIRLRPPRLPRPRPRPKQHPRP | -0.103 |

| Sequence | shrunken log2 fold change |
| --- | --- |
| RRIRYRPPRLPRPRPRPQDPPRP | -0.0639 |
| RRIRERPPRLPRPRPRPTLSPRP | 0.0115 |
| RRIRYRPPRLPRPRPRPTTMPRP | -0.722 |
| RRIRIRPPRLPRPRPRPVPCPRP | -0.00376 |
| RRIRERPPRLPRPRPRPGDMPRP | -0.116 |
| RRIRQRPPRLPRPRPRPPKRPRP | 0.487 |
| RRIRDRPPRLPRPRPRPKNFPRP | -0.174 |
| RRIRQRPPRLPRPRPRPQRWPRP | 0.178 |
| RRIRTRPPRLPRPRPRPEDPPRP | -0.00217 |
| RRIRERPPRLPRPRPRPAQSPRP | 0.0517 |
| RRIRERPPRLPRPRPRPAKPPRP | -0.248 |
| RRIRWRPPRLPRPRPRPTIFPRP | 0.0443 |
| RRIRPRPPRLPRPRPRPPEIPRP | -0.0297 |
| RRIRIRPPRLPRPRPRPGEGPRP | 0.38 |
| RRIRDRPPRLPRPRPRPCFKPRP | -0.0968 |
| RRIRMRPPRLPRPRPRPSSNPRP | -0.142 |
| RRIRFRPPRLPRPRPRPVRVPRP | 0.349 |
| RRIRTRPPRLPRPRPRPYWNPRP | -0.343 |
| RRIRERPPRLPRPRPRPADIPRP | 0.033 |
| RRIRPRPPRLPRPRPRPEQMPRP | 0.0974 |
| RRIRQRPPRLPRPRPRPQQSPRP | -0.0224 |
| RRIRYRPPRLPRPRPRPYLMPRP | -0.254 |
| RRIRSRPPRLPRPRPRPIAEPRP | -0.0272 |
| RRIRKRPPRLPRPRPRPKDMPRP | 0.139 |
| RRIRYRPPRLPRPRPRPTGCPRP | -0.0275 |

| Sequence | shrunken log2 fold change |
| --- | --- |
| RRIRRRPPRLPRPRPRPPLNPRP | 0.696 |
| RRIRMRPPRLPRPRPRPFHHPRP | -0.419 |
| RRIRRRPPRLPRPRPRPWYMPRP | -0.0284 |
| RRIRGRPPRLPRPRPRPQNMPRP | -0.399 |
| RRIRCRPPRLPRPRPRPSLIPRP | -0.286 |
| RRIRTRPPRLPRPRPRPLAMPRP | 0.128 |
| RRIRYRPPRLPRPRPRPFPVPRP | -0.149 |
| RRIRHRPPRLPRPRPRPLWFPRP | -0.00823 |
| RRIRSRPPRLPRPRPRPNGGPRP | -0.0284 |
| RRIRARPPRLPRPRPRPCLHPRP | 1.24 |
| RRIRGRPPRLPRPRPRPYICPRP | -0.423 |
| RRIRRRPPRLPRPRPRPILMPRP | -0.00531 |
| RRIRHRPPRLPRPRPRPPLMPRP | -0.187 |
| RRIRHRPPRLPRPRPRPENAPRP | 0.14 |
| RRIRIRPPRLPRPRPRPKDQPRP | -0.196 |
| RRIRLRPPRLPRPRPRPYFKPRP | -1.3 |
| RRIRPRPPRLPRPRPRPYPPPRP | -0.537 |
| RRIRCRPPRLPRPRPRPTSAPRP | 0.18 |
| RRIRVRPPRLPRPRPRPDASPRP | 0.0719 |
| RRIRERPPRLPRPRPRPPWRPRP | 0.424 |
| RRIRPRPPRLPRPRPRPTLYPRP | 0.221 |
| RRIRSRPPRLPRPRPRPHFTPRP | -0.256 |
| RRIRCRPPRLPRPRPRPKGRPRP | -0.00803 |
| RRIRSRPPRLPRPRPRPAFDPRP | 1.02 |
| RRIRIRPPRLPRPRPRPCELPRP | -0.254 |

| Sequence | shrunken log2 fold change |
| --- | --- |
| RRIRERPPRLPRPRPRPMNTPRP | -0.0609 |
| RRIRWRPPRLPRPRPRPICFPRP | 0.135 |
| RRIRTRPPRLPRPRPRPLGNPRP | -0.159 |
| RRIRERPPRLPRPRPRPMFWPRP | 0.0831 |
| RRIRDRPPRLPRPRPRPNITPRP | -0.289 |
| RRIRPRPPRLPRPRPRPAIDPRP | 1.19 |
| RRIRLRPPRLPRPRPRPWDCPRP | -0.0998 |
| RRIRHRPPRLPRPRPRPADFPRP | 0.116 |
| RRIRSRPPRLPRPRPRPMGPPRP | -0.0846 |
| RRIRVRPPRLPRPRPRPQVPPRP | -0.205 |
| RRIRQRPPRLPRPRPRPQDHPRP | -0.408 |
| RRIRHRPPRLPRPRPRPQRLPRP | 0.00653 |
| RRIRRRPPRLPRPRPRPTETPRP | 0.137 |
| RRIRRRPPRLPRPRPRPHDEPRP | 0.18 |
| RRIRCRPPRLPRPRPRPIKFPRP | -0.159 |
| RRIRQRPPRLPRPRPRPGEKPRP | 0.139 |
| RRIRWRPPRLPRPRPRPEYFPRP | -0.0445 |
| RRIRPRPPRLPRPRPRPAFEPRP | 0.139 |
| RRIRTRPPRLPRPRPRPVYWPRP | -0.103 |
| RRIRHRPPRLPRPRPRPKCTPRP | -0.0702 |
| RRIRIRPPRLPRPRPRPRGFPRP | 0.199 |
| RRIRVRPPRLPRPRPRPGCEPRP | 2.45 |
| RRIRTRPPRLPRPRPRPTWFPRP | -0.0683 |
| RRIRTRPPRLPRPRPRPETHPRP | 0.179 |
| RRIRCRPPRLPRPRPRPGTKPRP | -0.404 |

| Sequence | shrunken log2 fold change |
| --- | --- |
| RRIRARPPRLPRPRPRPIYWPRP | 0.0177 |
| RRIRCRPPRLPRPRPRPWEMPRP | -0.0816 |
| RRIRTRPPRLPRPRPRPTVCPRP | -0.509 |
| RRIRARPPRLPRPRPRPIDLPRP | 0.289 |
| RRIRWRPPRLPRPRPRPLFAPRP | 0.579 |
| RRIRMRPPRLPRPRPRPSDDPRP | 1.89 |
| RRIRKRPPRLPRPRPRPSKTPRP | 0.0486 |
| RRIRIRPPRLPRPRPRPGAMPRP | 0.046 |
| RRIRNRPPRLPRPRPRPFTVPRP | -0.00101 |
| RRIRQRPPRLPRPRPRPIYVPRP | 0.0693 |
| RRIRSRPPRLPRPRPRPGDMPRP | 0.0129 |
| RRIRFRPPRLPRPRPRPSVDPRP | -0.011 |
| RRIRRRPPRLPRPRPRPWWWPRP | 0.184 |
| RRIRFRPPRLPRPRPRPQICPRP | -0.135 |
| RRIRPRPPRLPRPRPRPDFVPRP | -0.107 |
| RRIRMRPPRLPRPRPRPRSWPRP | 1.42 |
| RRIRIRPPRLPRPRPRPQYFPRP | -0.128 |
| RRIRQRPPRLPRPRPRPRKWPRP | 0.832 |
| RRIRMRPPRLPRPRPRPSCEPRP | 0.541 |
| RRIRKRPPRLPRPRPRPVRYPRP | 0.152 |
| RRIRHRPPRLPRPRPRPMRAPRP | 0.686 |
| RRIRRRPPRLPRPRPRPPVPPRP | 0.753 |
| RRIRTRPPRLPRPRPRPCLAPRP | -0.307 |
| RRIRRRPPRLPRPRPRPFINPRP | -0.211 |
| RRIRCRPPRLPRPRPRPALEPRP | -0.00844 |
